Experiments:
[1] = test system: mouse bone marrow mesenchymal stem cell line (MSC-1 cells), PDGFRα-positive; experiment: Migration assay (Boyden / 48-well chemotaxis chamber) on bone marrow mesenchymal stem cell line MSC-1; format: cell-based
Method in brief: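 Mouse MSC-1 cells (3×10^6 cells/ml in D-MEM with 10% FBS) loaded in the upper wells of a 48-well Boyden chamber with 8 μm polycarbonate membrane; mouse HMGB1 peptides or HEK293-made HMGB1 in lower wells at 100 μg/ml, 5 μM or 10 μM; PBS as negative control. After 4 h at 37° C, migrated cells were Diff-Quik stained.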

[2] = test system: skin flap made on the back of a rat; experiment: Skin flap (skin damage) model on the back of rats; format: in vivo
Description: Experimental animals used were SD rats (male, eight weeks old). After sufficiently deep anesthesia by isoflurane inhalation, a rectangular skin incision of 3 cm width×7 cm length was made on the back. The cephalic side was left uncut, and the skin was thoroughly detached from the subcutaneous tissues. The three incised sides were sutured to the surrounding skin using #4 silk suture, and protected with Tegaderm (3M) to prevent bacterial infection.
The full-length mouse HMGB1 (100 μg/administration/day) produced in HEK293 and chemically synthesized HMGB1 peptide (amino acids 1 to 44; 50 μg/administration/day) were diluted to 200 μl with phosphate buffer and administered to rats via the caudal vein. The first administration was performed 6 hours after the surgery, and then the agents were administered every 24 hours a total of five times. Phosphate-buffered physiological saline was administered as a negative control. Tegaderm was removed after one week, and the wound region was observed weekly to measure the areas of necrosis and ulceration.
Experimental animals used were 15 SD rats (male, eight weeks old) per group. After sufficient anesthesia by isoflurane inhalation, a rectangular skin incision of 3 cm width×7 cm length was made on the back. The cephalic side was left uncut, and the skin was thoroughly detached from the subcutaneous tissues. The incised three sides were sutured to the surrounding skin using #4 silk suture, and protected with Tegaderm (3M) to prevent bacterial infection.
Chemically synthesized HMGB1 peptide (amino acids 1-44; 50 μg/administration/day) or HMGB1 peptide (amino acids 17-25; 50 μg/administration/day) was diluted to 200 μl with phosphate buffer and administered to the rats with experimental wound. The first administration was performed 6 hours after the surgery, and then the agents were administered every 24 hours a total of five times. Phosphate-buffered physiological saline was administered as a negative control. Tegaderm was removed after one week, and the wound was observed two weeks after the wound production. Uncured areas (ulceration and necrosis) were measured.

[3] = test system: skin flap made on the back of a rat; experiment: Skin flap (skin damage) model on the back of rats; format: in vivo; conditions: six weeks after skin flap production; 50 μg/administration/day, five administrations, FIG. 26
[4] = Side effects after administration of recombinant HMGB1 (previous studies of the inventors); format: in vivo; conditions: high concentration administered to mice or rats
Excerpt: As described above, HMGB1 pharmaceuticals are revolutionary therapeutic agents that promote the recruitment of bone marrow mesenchymal stem cells into blood and accumulation of the cells to damaged tissues, thereby inducing tissue regeneration in the body. […] However, there are also reports that HMGB1 has an inflammatory effect. As described above, there are several findings on HMGB1; however, nothing is known about the effect of fragments of the HMGB1 protein on mesenchymal stem cells or what roles they play in tissue regeneration.

[5] = Youn et al., J Immunol 2008; cited from earlier work
mesoangioblasts = conditions: Palumbo et al., J. Cell Biol. 2004; cited from earlier work
[6] = test system: human-derived bone marrow mesenchymal stem cells (hMSC); experiment: Migration assay on human-derived bone marrow mesenchymal stem cells; format: cell-based; conditions: human HMGB1 fragments produced in E. coli, 2 μM, FIG. 21B
Excerpt: Human HMGB1 fragments (2-215, 2-84, 2-44, 45-84, 85-169, 89-185, 89-195, and 89-205) were produced in E. coli and purified using appropriate columns in the same manner as described in Examples 14, 15, and 16 above. However, 89-215 was purified by the same method as used for 89-205 in Example 15.
Using human-derived bone marrow mesenchymal stem cells, each fragment was examined by the same migration assay performed on mouse-derived bone marrow mesenchymal stem cells (MSC-1) as described above. The fragments were used at a final concentration of 2 μM. The human-derived bone marrow mesenchymal stem cells used were hMSC (human Mesenchymal Stem Cell, Takara) at fourth passage. The growth medium used was a mesenchymal stem cell growth medium (MF medium, TOYOBO). The cells were cultured in an incubator under 5% CO2 at 37° C. The medium was changed with a fresh medium every two to four days. The cells were passaged when they reached 80% confluency.

[7] = produced in E. coli, 2 μM, FIGS. 20B and 20C

## (17-25): synthetic peptide consisting of the amino acid sequence from positions 17 to 25 of HMGB1 (AFFVQTCRE; UniProt P09429 17-25, looked up, fragment)
[1]; synthetic peptides, 5 μM, FIGS. 8A and 8B
  migration-promoting activity: weak activity
[2]; two weeks after skin flap production, 50 μg/administration/day, five administrations, 15 SD rats per group, FIG. 26
  ratio of the uncured area relative to the area of the whole skin flap, average: 9.1%
[3]
  ratio of the uncured area relative to the area of the whole skin flap, average: 3.5%

## recombinant HMGB1 protein: recombinant HMGB1 protein administered to mice or rats in the inventors' previous studies
[4]
  side effects: no side effects were observed

## 1-215: whole mouse HMGB1 produced in HEK293, positive control [reference compound]
[1]; protein and peptides produced using HEK293 (mouse HMGB1), 50 μg/ml, 4 h, FIG. 2A
  migration-promoting activity: showed migration-promoting activity
[2]; one to three weeks after the skin flap was made, versus negative control, FIG. 25
  area of wound section (necrosed section) in the skin flap: effect of shrinking the wound section was confirmed
[2]; one week after surgery, caudal vein, five administrations, full-length 100 μg, peptide 50 μg/administration/day, negative control four of five
  rats in which skin necrosis developed: three of five rats
[2]; seven weeks after surgery, same regimen, negative control four of five, FIG. 24
  rats with severe skin contracture: three of five rats
[5]
  LPS-binding activity: known to have the binding activity with lipopolysaccharide (LPS)

B1: amino acids of positions 90 to 176: HMGB1 sequence consisting of the amino acids of positions 90 to 176 (Palumbo et al.) (protein, UniProt P09429 90-176, looked up, fragment)
chain: KDPNAPKRPPSAFFLFCSEYRPKIKGEHPGLSIGDVAKKLGEMWNNTAADDKQPYEKKAAKLKEKYEKDIAAYRAKGKPDAAKKGVV
mesoangioblasts
  cell migration-promoting activity: almost no activity

B2: Human HMGB1 fragment (85-169): human HMGB1 fragment, positions 85 to 169, produced in E. coli (protein, UniProt P09429 85-169, looked up, fragment)
chain: TKKKFKDPNAPKRPPSAFFLFCSEYRPKIKGEHPGLSIGDVAKKLGEMWNNTAADDKQPYEKKAAKLKEKYEKDIAAYRAKGKPD
[1]; produced in E. coli, 2 μM, FIG. 20A
  migration-promoting activity compared with 2-215: stronger migration-promoting activity on bone marrow mesenchymal stem cells than human HMGB1 fragment (2-215)
[1]; [7]
  migration-promoting activity per equal mass (reference taken as 1): 3.6 times
  migration-promoting activity per molar (reference taken as 1): 1.59 times
[6]
  migration-promoting activity: greater than that of human HMGB1 fragment (2-215)

B3: amino acids 88 to 162: HMGB1 fragment of amino acids 88 to 162 (Youn et al.) (protein, UniProt P09429 88-162, looked up, fragment)
chain: KFKDPNAPKRPPSAFFLFCSEYRPKIKGEHPGLSIGDVAKKLGEMWNNTAADDKQPYEKKAAKLKEKYEKDIAAY
[5]
  LPS-binding activity: lack the LPS-binding activity

B4: amino acids of positions 1 to 187: HMGB1 sequence of positions 1 to 187 resulting from cleavage at the C terminal end (Palumbo et al.) (protein, UniProt P09429 1-187, looked up, fragment)
chain: MGKGDPKKPRGKMSSYAFFVQTCREEHKKKHPDASVNFSEFSKKCSERWKTMSAKEKGKFEDMAKADKARYEREMKTYIPPKGETKKKFKDPNAPKRPPSAFFLFCSEYRPKIKGEHPGLSIGDVAKKLGEMWNNTAADDKQPYEKKAAKLKEKYEKDIAAYRAKGKPDAAKKGVVKAEKSKKKKEE
mesoangioblasts
  cell migration-promoting activity: retains the cell migration-promoting activity of HMGB1

B5: 89-185: human HMGB1 fragment, positions 89 to 185, produced in E. coli (protein, UniProt P09429 89-185, looked up, fragment)
chain: FKDPNAPKRPPSAFFLFCSEYRPKIKGEHPGLSIGDVAKKLGEMWNNTAADDKQPYEKKAAKLKEKYEKDIAAYRAKGKPDAAKKGVVKAEKSKKKK
[1]; human HMGB1 fragments 89-215, 89-205, 89-195, 89-185 and their Q column fractions, E. coli, 2 μM, FIGS. 19B and 19D
  migration-promoting activity: stronger activity than any fragments between positions 89 and 215
[6]
  migration-promoting activity: exhibited stronger activity

B6: amino acids of positions 1 to 176: HMGB1 sequence consisting of the amino acids of positions 1 to 176 (Palumbo et al.) (protein, UniProt P09429 1-176, looked up, fragment)
chain: MGKGDPKKPRGKMSSYAFFVQTCREEHKKKHPDASVNFSEFSKKCSERWKTMSAKEKGKFEDMAKADKARYEREMKTYIPPKGETKKKFKDPNAPKRPPSAFFLFCSEYRPKIKGEHPGLSIGDVAKKLGEMWNNTAADDKQPYEKKAAKLKEKYEKDIAAYRAKGKPDAAKKGVV
mesoangioblasts
  cell migration-promoting activity: almost no activity

B7: amino acids 1 to 79: HMGB1 fragment of amino acids 1 to 79 (Youn et al.) (protein, UniProt P09429 1-79, looked up, fragment)
chain: MGKGDPKKPRGKMSSYAFFVQTCREEHKKKHPDASVNFSEFSKKCSERWKTMSAKEKGKFEDMAKADKARYEREMKTYI
[5]
  LPS-binding activity: lack the LPS-binding activity

B8: amino acids of positions 1 to 89: HMGB1 sequence consisting of the amino acids of positions 1 to 89 (Palumbo et al.) (protein, UniProt P09429 1-89, looked up, fragment)
chain: MGKGDPKKPRGKMSSYAFFVQTCREEHKKKHPDASVNFSEFSKKCSERWKTMSAKEKGKFEDMAKADKARYEREMKTYIPPKGETKKKF
mesoangioblasts
  cell migration-promoting activity: almost no activity

Reference: patent publication US10550165B2, “Peptide for inducing regeneration of tissue and use thereof” (STEMRIM INC., priority 2011, dated 2020)
